Target: calmodulin (CaM) (UniProt P62157 1-149)
Test: cell-based or functional assay

fold induction of the catalytic activity (MLC phosphorylation, in vitro kinase assay) upon addition of Ca2+/CaM against EGTA: 5.7 fold
B1: FLAG-DAPK2 WT (enzyme)
chain: MFQASMRSPNMEPFKQQKVEDFYDIGEELGSGQFAIVKKCREKSTGLEYAAKFIKKRQSRASRRGVSREEIEREVSILRQVLHHNVITLHDVYENRTDVVLILELVSGGELFDFLAQKESLSEEEATSFIKQILDGVNYLHTKKIAHFDLKPENIMLLDKNIPIPHIKLIDFGLAHEIEDGVEFKNIFGTPEFVAPEIVNYEPLGLEADMWSIGVITYILLSGASPFLGDTKQETLANITAVSYDFDEEFFSQTSELAKDFIRKLLVKETRKRLTIQEALRHPWITPVDNQQAMVRRESVVNLENFRKQYVRRRWKLSFSIVSLCNHLTRSLMKKVHLRPDEDLRNCESDTEEDIARRKALHPRRRSSTS
